Assay results published in patent publication US9823254B2, “Reversible chemoenzymatic labeling of native and fusion carrier protein motifs” (The Regents of the University of California, priority 2012, dated 2017).

Legend:
E. coli AcpP = E. coli AcpP (Escherichia coli, UniProt P0A6A8); details: FAS; crypto-CP (coumarin-PPant), overnight, 37° C., 1 μM AcpH
Experimental: (§1) Unless otherwise noted, all coumarin-PPant labeling proceeded as follows: apo-carrier protein or peptide at 50-200 μM were labeled in 50 mM Na-HEPES pH 7.5, 10 mM MgCl2, 8 mM ATP, 0.1 μM MBP-CoaA/D/E, 0.1 μM native Sfp, and 1.1 equivalents of coumarin-pantetheine at 37° C. overnight. Crypto-protein samples were repurified using standard IMAC techniques in pH 8 lysis buffer with Ni-NTA resin, and spin-concentrated/buffer exchanged to remove imidazole and concentrate with 0.5 mL 3 kDa MWCO cellulose filters. Crypto-peptide samples were purified with HPLC, lyophilized, and redissolved in 50 mM TrisCl pH 8.0 prior to analysis.
(§2) Following AcpH treatment, an equal volume of 2×SDS-PAGE loading dye was added to crypto-carrier proteins samples and heated 5 min at 90° C., and run on 12% or 15% SDS-PAGE. Gels were fixed in 50/40/10% water/methanol/acetic acid for 30 minutes, and washed with water three times before UV imaging. Holo-carrier protein reactions were analyzed with Urea-PAGE as previously described.^6 All protein gels were Coomassie stained for evaluating total protein. Crypto-peptides were evaluated on Urea-PAGE, and were imaged immediately after running with no gel fixing.

P. aeruginosa AcpP = P. aeruginosa AcpP (Pseudomonas aeruginosa, UniProt O54439); details: FAS; crypto-CP (coumarin-PPant), overnight, 37° C., 1 μM AcpH
Experimental: as §1, §2

S. oneidensis AcpP = test: AcpH qualitative CP activity, holo-SoAcpP, Urea-PAGE; format: biochemical; details: FAS, Urea-PAGE gel-shift, shorter timescale
A. parasiticus PksA = target: T1, A. parasiticus PksA (Aspergillus parasiticus, UniProt Q12053); test: AcpH qualitative CP activity, gel-based, crypto-CP; format: biochemical; details: PKS; crypto-CP (coumarin-PPant), overnight, 37° C., 1 μM AcpH
T1 construct: made in house

G. fujikuroi Pks4 = test: AcpH qualitative CP activity, gel-based, crypto-CP; format: biochemical; details: PKS; crypto-CP (coumarin-PPant), overnight, 37° C., 1 μM AcpH
A. orientalis CepK = test: AcpH qualitative CP activity, gel-based, crypto-CP; format: biochemical; details: NRPS; crypto-CP (coumarin-PPant), overnight, 37° C., 1 μM AcpH
P. syringae SyrB1 = P. syringae SyrB1 (Pseudomonas syringae pv. syringae, UniProt Q52400); test: AcpH qualitative CP activity, gel-based, crypto-CP; format: biochemical; details: NRPS; crypto-CP (coumarin-PPant), overnight, 37° C., 1 μM AcpH
YbbR13 = test: AcpH activity with modified ybbR peptide, qualitative; format: biochemical; details: coumarin-PPant labeled
crypto-FITC-YbbR (3) = target: T2, crypto-FITC-YbbR (3) (Bacillus subtilis, UniProt O34659); test: FRET-quench microwell AcpH kinetics; format: biochemical; details: 37° C., FRET-quench microwell plate assay, [AcpH] 1 μm
T2 construct: made in house; host or cells: enzymatic labelling of FITC-ybbR peptide with Sfp and rhodamine-CoA
T2 sequence (O34659 whole entry, looked up): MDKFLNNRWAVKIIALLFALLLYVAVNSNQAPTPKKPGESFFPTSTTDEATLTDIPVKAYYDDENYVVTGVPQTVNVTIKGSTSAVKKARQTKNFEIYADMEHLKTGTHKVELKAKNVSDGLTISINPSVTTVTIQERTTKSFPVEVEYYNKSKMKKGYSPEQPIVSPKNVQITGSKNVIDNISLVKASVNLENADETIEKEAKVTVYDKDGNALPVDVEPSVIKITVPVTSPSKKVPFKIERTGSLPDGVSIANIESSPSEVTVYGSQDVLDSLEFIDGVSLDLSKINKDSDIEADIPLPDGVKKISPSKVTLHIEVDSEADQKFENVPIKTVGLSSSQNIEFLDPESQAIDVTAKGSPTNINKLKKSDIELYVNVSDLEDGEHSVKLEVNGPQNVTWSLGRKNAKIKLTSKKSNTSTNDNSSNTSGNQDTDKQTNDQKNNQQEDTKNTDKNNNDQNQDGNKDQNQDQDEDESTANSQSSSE
Experimental: Preparation of rhodamine-labeled FITC-ybbR proceeded via reaction of 200 μM FITC-ybbR with 200 μM rhodamine WT-CoA synthesized as described previously^33 with 1 μM Sfp in 50 mM HEPES pH 7.5 and 10 mM MgCl2 for 2 hours at 37° C.
Rhodamine-labeled FITC-Ybbr as well as standard 1:1 apo-FITC-ybbR:rhodamine-CoA was subjected to an 11-point serial dilution in 50 mM TrisCl pH 8.0 to achieve final concentrations of 400-0.4 μM. […] Total reaction volumes were 50 μL and utilized a 96-well Costar 3694 plate (Corning, Lowell, Mass.). Following mixing, reactions were centrifuged for 2 minutes at 1500 rpm, and incubated at 37° C. over 4 hours in a HTS 7000 plus Bioassay Reader (Perkin Elmer, Waltham, Mass.) in kinetic mode. Comparison of enzyme reactions to buffer blank and 1:1 apo-FITC-ybbR:rhodamine-CoA standard allowed calculation of product formation and determination of Michaelis-Menten kinetics using GraphPad Prism.

[1] = system: ACP fusion proteins (MBP, GFP, Lux-ACP); test: AcpH label removal from rhodamine-labeled ACP fusion proteins; format: biochemical; details: N-terminal MBP, C-terminal GFP, N-terminal luciferase (Lux-ACP) fusions
Experimental: Purified apo-MBP-PaACP at 200 μM was labeled with 1 mM rhodamine-CoA and 13 μM native Sfp in a reaction volume of 20 μL for 3 hours at 37° C. Purified apo-GFP-ACP at 150 μM was labeled with 1 mM rhodamine-CoA and 7 μM native Sfp in a reaction volume of 35 μL for 3 hours at 37° C. Purified apo-Lux-ACP at 12 μM was labeled with 50 μM rhodamine-CoA and 3 μM native Sfp for 1 hour at 37° C. Fusion ACPs were then re-purified from excess rhodamine-CoA and native Sfp using Ni-NTA resin, and buffer exchanged and concentrated using 10 kDa MWCO 0.5 mL Amicon spin filters (Millipore). Label removal of MBP-ACP and GFP-ACP proceeded with 4 μL of the concentrated crypto-fusion ACPs with 10 μM AcpH in 10 μL of AcpH reaction buffer for 3 hours at 37° C. 6 μM crypto-Lux-ACP was reacted with 5 μM AcpH for 3 hours at 37° C. AcpH reaction samples were run immediately afterwards on Urea-PAGE (MBP-ACP and GFP-ACP) or SDS-PAGE (Lux-ACP) with no further purification.

M. tuberculosis AcpM = M. tuberculosis AcpM (Mycobacterium tuberculosis, UniProt P9WQF3); details: FAS; crypto-CP (coumarin-PPant), overnight, 37° C., 1 μM AcpH

B1: PaAcpH: acyl carrier protein hydrolase (AcpH) from P. aeruginosa PAO1, NP13 253043.1 (protein)
chain: MNYLAHLHLGGPQPAQLLGSLYGDFVKGRLQGQWPDEIERAIQLHRRIDAFTDSHPLVHAAKRRFPLERRRFAGVLLDVFFDHCLARDWNDYADEPLPQFVERVYGTLRTASPLPERLARIAPRMAAQDWLGSYREFAVLREVLGGMSRRLSRPHLLDGSWEELAQRYDDLSADFRAFYPQLQAFALSQR
- AcpH qualitative CP activity (E. coli AcpP): YES
- AcpH qualitative CP activity (P. aeruginosa AcpP): YES
- AcpH qualitative CP activity (S. oneidensis AcpP): YES^†
- AcpH qualitative CP activity (A. parasiticus PksA): YES
- AcpH qualitative CP activity (G. fujikuroi Pks4): no
- AcpH qualitative CP activity (A. orientalis CepK): no
- AcpH qualitative CP activity (P. syringae SyrB1): no
- AcpH activity with modified ybbR peptide (YbbR13; YbbR13: N-term 6xHis, C-term GFP): no
- AcpH activity with modified ybbR peptide (YbbR13; YbbR13: N-term FITC, C-term N/A): no
- AcpH activity with modified ybbR peptide (YbbR13; YbbR13: N-term GFP, C-term 6xHis): no
- AcpH activity with modified ybbR peptide (YbbR13; YbbR13 free peptide: N-term N/A, C-term N/A): no
- Km (crypto-FITC-YbbR (3)): 177 µM
- Vmax (crypto-FITC-YbbR (3)): 0.008 ± 0.016 min⁻¹
- kcat (crypto-FITC-YbbR (3)): 0.00013 ± 0.000267 s⁻¹
- removal of rhodamine-PPT from ACP fusion proteins [1]: removed rhodamine-PPT
- AcpH qualitative CP activity (M. tuberculosis AcpM): YES
